# Reference: article PMC5923459
# Target: importin β1 (mouse (endogenous in 3T6)) (UniProt P70168)
# Experiment: proximity ligation
# Chain of importin β1 (mouse (endogenous in 3T6)) (P70168 whole entry): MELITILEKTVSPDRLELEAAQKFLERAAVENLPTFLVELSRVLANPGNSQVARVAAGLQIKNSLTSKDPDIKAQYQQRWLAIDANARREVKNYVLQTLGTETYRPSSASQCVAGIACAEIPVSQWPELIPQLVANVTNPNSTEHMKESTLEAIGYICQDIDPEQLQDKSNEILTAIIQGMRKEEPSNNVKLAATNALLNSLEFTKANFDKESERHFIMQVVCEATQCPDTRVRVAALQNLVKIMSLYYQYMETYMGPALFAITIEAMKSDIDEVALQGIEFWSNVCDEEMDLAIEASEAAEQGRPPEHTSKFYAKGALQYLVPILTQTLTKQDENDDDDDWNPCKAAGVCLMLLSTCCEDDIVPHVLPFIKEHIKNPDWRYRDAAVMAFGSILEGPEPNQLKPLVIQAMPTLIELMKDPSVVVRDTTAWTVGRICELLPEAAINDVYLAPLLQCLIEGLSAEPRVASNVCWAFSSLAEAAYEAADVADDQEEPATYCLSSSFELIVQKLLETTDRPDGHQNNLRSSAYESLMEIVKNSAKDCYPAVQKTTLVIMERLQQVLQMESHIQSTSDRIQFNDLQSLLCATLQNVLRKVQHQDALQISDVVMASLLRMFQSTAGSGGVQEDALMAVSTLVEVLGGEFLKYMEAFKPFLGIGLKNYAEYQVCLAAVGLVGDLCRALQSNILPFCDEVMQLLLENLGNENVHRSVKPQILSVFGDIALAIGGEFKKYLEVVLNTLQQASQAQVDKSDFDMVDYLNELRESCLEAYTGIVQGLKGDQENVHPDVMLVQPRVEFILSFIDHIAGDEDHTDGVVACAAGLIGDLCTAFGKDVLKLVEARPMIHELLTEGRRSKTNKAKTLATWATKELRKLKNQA
# Chain of wild type mouse polyomavirus (MPyV) virions, strain A3 (capsid proteins VP1, VP2 and VP3) (P03097 whole entry, looked up): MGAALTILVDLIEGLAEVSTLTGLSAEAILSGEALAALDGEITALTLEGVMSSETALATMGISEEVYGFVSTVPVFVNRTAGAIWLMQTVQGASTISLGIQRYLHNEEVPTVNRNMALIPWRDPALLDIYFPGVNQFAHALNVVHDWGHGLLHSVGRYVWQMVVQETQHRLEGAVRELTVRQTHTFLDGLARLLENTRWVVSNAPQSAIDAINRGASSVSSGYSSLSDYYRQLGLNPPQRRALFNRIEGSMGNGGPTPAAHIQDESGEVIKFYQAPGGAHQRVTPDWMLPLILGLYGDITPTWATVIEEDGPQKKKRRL
# Chain of wild type mouse polyomavirus (MPyV) virions, strain A3 (capsid proteins VP1, VP2 and VP3) (P03091 whole entry, looked up): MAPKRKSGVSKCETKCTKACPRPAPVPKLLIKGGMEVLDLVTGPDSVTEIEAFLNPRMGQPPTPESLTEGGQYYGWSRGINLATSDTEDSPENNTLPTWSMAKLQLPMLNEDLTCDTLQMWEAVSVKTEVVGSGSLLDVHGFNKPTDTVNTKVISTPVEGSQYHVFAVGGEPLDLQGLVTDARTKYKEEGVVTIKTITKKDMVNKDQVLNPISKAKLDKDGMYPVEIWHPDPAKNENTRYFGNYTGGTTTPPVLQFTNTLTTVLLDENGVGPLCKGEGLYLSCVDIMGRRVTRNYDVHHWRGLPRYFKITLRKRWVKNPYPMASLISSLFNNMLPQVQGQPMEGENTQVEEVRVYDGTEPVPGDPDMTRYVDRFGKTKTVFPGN
substance,measurement,value
"wild type mouse polyomavirus (MPyV) virions, strain A3 (capsid proteins VP1, VP2 and VP3) (from UniProt P03091;P03097) (complex)",PLA spots per 50 cells (spots per 50 cells),> 1000
